Results on 4 molecules are retold here after article PMC4962041, “Human DNA-Damage-Inducible 2 Protein Is Structurally and Functionally Distinct from Its Yeast Ortholog” (Scientific Reports, 2016).

No end group written: not given here.

Data set [1] concerns the molecule itself. Description: crystal structure; hDdi2 RVP (212-360), 1.9 Å, PDB 4RGH; hanging drop, 0.2 M ammonium acetate, 0.1 M Bis-Tris pH 5.5, 25% PEG 3350.
In data set [2] the target is T1, human ubiquitin (human, UniProt P0CG48 1-76).
T1 construct: human ubiquitin, the cut product of the ubiquitin precursors; shifts were mapped on PDB 1D3Z; also called UBQ; mono-UBQ; source: 15N- or 15N/13C-labelled where observed by NMR
Kind of data set: NMR titration; 15N-labelled UBQ (0.1 mM) with unlabelled peptide; 15N/1H-HSQC chemical shift perturbation; 50 mM sodium phosphate, pH 6.0 and pH 7.4, 25 °C; 1:1 model for the Kd. To be noted: both partners purified.

Data set [3] deals with the molecule itself. Kind of data set: SAXS; His-tagged HDD-RVP at 5 and 2.5 mg/ml in 25 mM Tris/HCl, 75 mM NaCl, 5% glycerol, 1 mM DTT, pH 7.4; molecular mass from the invariant Vc.
For data set [4], the target named is T1, human ubiquitin. Kind of data set: NMR titration; 15N-labelled hDdi2 UBL (0.05 mM) with a 1- to 10-fold molar excess of UBQ; 50 mM sodium phosphate, pH 7.4, 25 °C; 1:1 model for the Kd. To be noted: both partners purified.

B1: hDdi2 RVP domain (residues 212-360) (domain or fragment)
chain: not shown
notes: Gln232 to Pro359 visible in the structure
Regarding B1, the binding result in data set [1] is listed as “binds”.

B2: hDdi2-UIM peptide (peptide)
peptide: EEIADQELAEALQKSAEDAE-NH2
notes: Dissolved in DMSO before use; also called C-terminal hDdi2 UIM peptide; source: synthetic peptide (solid phase, HPLC purified)
The Kd is the concentration at which binding is half-saturated. Consider B2, for which the Kd with human ubiquitin [2] was 2200 to 3200 µM.

B3: hDdi2 HDD-RVP (residues 116-360) (domain or fragment, human, UniProt Q5TDH0 116-360, looked up)
chain: QQSHSSPGEITSSPQGLDNPALLRDMLLANPHELSLLKERNPPLAEALLSGDLEKFSRVLVEQQQDRARREQERIRLFSADPFDLEAQAKIEEDIRQQNIEENMTIAMEEAPESFGQVVMLYINCKVNGHPVKAFVDSGAQMTIMSQACAERCNIMRLVDRRWAGIAKGVGTQKIIGRVHLAQVQIEGDFLPCSFSILEEQPMDMLLGLDMLKRHQCSIDLKKNVLVIGTTGSQTTFLPEGELPE
notes: human DNA-damage-inducible 2 protein (Ddi homolog 2, 399 amino acids), residues 116-360 (lacking both UBL and UIM); Called His-tagged for the SAXS experiment; dimer by SAXS; not shown: His tag, N-terminal, kept
Usually stoichiometry N stands for the number of molecules, sites or subunits per partner or assembly. Turning to B3, in data set [3], the “stoichiometry N” value amounted to 2.

B4: hDdi2 UBL domain (residues 1-76) (domain or fragment, human, UniProt Q5TDH0 1-76, looked up)
chain: MLLTVYCVRRDLSEVTFSLQVDADFELHNFRALCELESGIPAAESQIVYAERPLTDNHRSLASYGLKDGDVVILRQ
notes: human DNA-damage-inducible 2 protein (Ddi homolog 2, 399 amino acids), residues 1-76: ubiquitin-like domain; also called N-terminal UBL domain of hDdi2; not shown: His tag, N-terminal, kept
With B4, the Kd with human ubiquitin [4] fell in the range of 420 to 1100 µM.
